Experimental data as given in patent publication US20160324751A1, “METHOD OF PREPARING RECOMBINANT HUMAN TYROSINASE” (Conopco, Inc., d/b/a UNILEVER, priority 2012, published 2016).

How the values were obtained:
[1] = biological target: T1, human tyrosinase prepared using truncated gene (TMRL) (Homo sapiens, UniProt P14679); assay: In vitro tyrosine to melanin assay; assay type: biochemical; settings: TMRL (60 μg) + 50 mM Arbutin
T1 construct: The truncated version is defined as a gene whose corresponding protein extends from the N-terminus to the amino acid 472 or lower; made in house; host or cells: HIGHFIVE (BTI-TN-5B1-4) insect cells, baculovirus (PFASTBAC)
T1 sequence (P14679 19-472 limits assumed): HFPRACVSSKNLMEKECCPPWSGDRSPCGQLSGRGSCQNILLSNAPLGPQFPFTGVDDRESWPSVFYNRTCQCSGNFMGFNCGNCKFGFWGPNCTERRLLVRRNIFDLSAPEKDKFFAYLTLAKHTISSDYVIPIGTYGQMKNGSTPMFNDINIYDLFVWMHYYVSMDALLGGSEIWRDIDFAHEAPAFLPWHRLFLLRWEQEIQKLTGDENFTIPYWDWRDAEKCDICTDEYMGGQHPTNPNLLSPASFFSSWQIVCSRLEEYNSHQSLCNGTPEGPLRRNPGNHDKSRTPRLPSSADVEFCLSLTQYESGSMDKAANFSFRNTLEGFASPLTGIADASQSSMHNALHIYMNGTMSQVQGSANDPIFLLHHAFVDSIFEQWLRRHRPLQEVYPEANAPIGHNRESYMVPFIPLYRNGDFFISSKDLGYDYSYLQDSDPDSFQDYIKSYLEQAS
Description: At the completion of the reaction, samples were photographed and data analyzed further in the same manner described under the DOPA+MBTH section.

[2] = tested on: insect cells expressing FL rHuTyrase; assay: Visual examination of cell pellet prior to cell lysis; assay type: cell-based; settings: prior to cell lysis by sonication; control uninfected cells pale
Description: FIG. 2: Visual examination (prior to cell lysis by sonication) of the samples of cell pellet obtained in the case of insect cells expressing Full (FL) rHuTyrase (Example 1) as compared to the control uninfected cells (Example A).

human tyrosinase [3] = assay: DOPA (2 mM) oxidation assay in absence of MBTH, OD450 nm; assay type: biochemical; settings: 15 μg protein equivalent, OD450 nm after 90 min converted into ratio
Experimental: DOPA oxidation activity was examined by a slightly modified version of the procedure earlier reported by Harris & Winder [Eur. J. Biochem. (1991) 198: 317-326], excluding Perchloric acid and Dimethylformamide but capturing a picture on reaction progress. Separately, in vitro melanin formation assay was carried out for 7 hrs. at 37° C., using a substrate mix (of 0.5 mM L-Tyrosine+15 μM L-DOPA) in 50 mM phosphate buffer (pH 6.8) and using indicated amounts of protein. This assay covers both tyrosine hydroxylation and DOPA oxidation activities together in the same run. Human melanocytic lysate served as the reference positive control and absence of any protein served as the no enzyme negative control (uncatalyzed background reaction) for these reactions. Assay volumes of 0.1 ml were adequate, indicating scalability for enhanced high throughput screening purposes.
When the activity of 15 μg protein equivalent recombinant human tyrosinase samples were tested in DOPA (2 mM) assay (in absence of MBTH), OD450 nm values reached after 90 min. (indication of extent of oxidation) were converted into a ratio form and are tabulated below: […]

human tyrosinase [4] = assay: DOPA+MBTH solution phase tyrosinase enzymatic assay; assay type: biochemical; settings: gray scale intensity difference to Example D, relative to HML (Example B); 0 = transparent, close to 1 = activity comparable to HML
Experimental: Standard western blot procedure was used to examine the extent of tyrosinase protein expression as well as determine optimal time point to harvest the cells. For scale up work, it was decided to use the insect cell line known as BTI-TN-5B1-4, sold under the tradename HIGHFIVE™ further. 100 ml scale growth of “infected” HIGHFIVE™ cells were carried out and both the spent media as well as the cell pellets were collected. The latter was lyzed by regular sonication method and the activity of the tyrosinase enzyme in various samples were tested using the typical DOPA oxidation and DOPA+MBTH coupling assays.
DOPA oxidation activity was examined by a slightly modified version of the procedure earlier reported by Harris & Winder [Eur. J. Biochem. (1991) 198: 317-326], excluding Perchloric acid and Dimethylformamide but capturing a picture on reaction progress. […]
Example E: Growth media supernatant in which above cells were grown Reaction samples were photographed and converted into gray scale intensity (GSI) by computer software digitization. Numerical differences (di) were calculated between GSI of any sample and that of reference control background sample (Example D). dmax was the maximal difference, that between HML (positive reference control, Example B) and the reference control background sample (Example D).

OC[C@H]1O[C@@H](Oc2ccc(O)cc2)[C@H](O)[C@@H](O)[C@@H]1O [Arbutin]
Scale ratio di/dmax (tyrosinase activity of TMRL with inhibitor) [1]: 0.00

B1: Example 1: Full length recombinant human tyrosinase, synthetic gene codon optimized for baculovirus expression in insect cells (protein, UniProt P14679 1-529, looked up)
chain: MLLAVLYCLLWSFQTSAGHFPRACVSSKNLMEKECCPPWSGDRSPCGQLSGRGSCQNILLSNAPLGPQFPFTGVDDRESWPSVFYNRTCQCSGNFMGFNCGNCKFGFWGPNCTERRLLVRRNIFDLSAPEKDKFFAYLTLAKHTISSDYVIPIGTYGQMKNGSTPMFNDINIYDLFVWMHYYVSMDALLGGSEIWRDIDFAHEAPAFLPWHRLFLLRWEQEIQKLTGDENFTIPYWDWRDAEKCDICTDEYMGGQHPTNPNLLSPASFFSSWQIVCSRLEEYNSHQSLCNGTPEGPLRRNPGNHDKSRTPRLPSSADVEFCLSLTQYESGSMDKAANFSFRNTLEGFASPLTGIADASQSSMHNALHIYMNGTMSQVQGSANDPIFLLHHAFVDSIFEQWLRRHRPLQEVYPEANAPIGHNRESYMVPFIPLYRNGDFFISSKDLGYDYSYLQDSDPDSFQDYIKSYLEQASRIWSWLLGAAMVGAVLTALLAGLVSLLCRHKRKQLPEEKQPLLMEKEDYHSLYQSHL
modifications: full-length recombinant, baculovirus-expressed
notes: Full length recombinant human tyrosinase, synthetic gene codon optimized for baculovirus expression in insect cells
Colour of cell pellet (melanin like pigment within the cells) [2]: black

B2: Example 6: FL lysate supernatant, 15 μg protein equivalent (protein, UniProt P14679 1-529, looked up)
chain: B1 chain
modifications: full-length insect cell lysate
notes: FL lysate supernatant, 15 μg protein equivalent
Scale ratio di/dmax (Extent of DOPA oxidation) (human tyrosinase [3]): 0.90

B3: Example 3: Sonication lysate supernatant of HIGHFIVE cells expressing FL tyrosinase (protein, UniProt P14679 1-529, looked up)
chain: B1 chain
modifications: full-length insect cell lysate
Scale ratio di/dmax (DOPA + MBTH Reaction) (human tyrosinase [4]): 0.85

B4: Example G: Commercially sourced E. coli (bacteria) expressed recombinant human tyrosinase (protein, UniProt P14679 19-529, looked up)
Tyrosinase: HFPRACVSSKNLMEKECCPPWSGDRSPCGQLSGRGSCQNILLSNAPLGPQFPFTGVDDRESWPSVFYNRTCQCSGNFMGFNCGNCKFGFWGPNCTERRLLVRRNIFDLSAPEKDKFFAYLTLAKHTISSDYVIPIGTYGQMKNGSTPMFNDINIYDLFVWMHYYVSMDALLGGSEIWRDIDFAHEAPAFLPWHRLFLLRWEQEIQKLTGDENFTIPYWDWRDAEKCDICTDEYMGGQHPTNPNLLSPASFFSSWQIVCSRLEEYNSHQSLCNGTPEGPLRRNPGNHDKSRTPRLPSSADVEFCLSLTQYESGSMDKAANFSFRNTLEGFASPLTGIADASQSSMHNALHIYMNGTMSQVQGSANDPIFLLHHAFVDSIFEQWLRRHRPLQEVYPEANAPIGHNRESYMVPFIPLYRNGDFFISSKDLGYDYSYLQDSDPDSFQDYIKSYLEQASRIWSWLLGAAMVGAVLTALLAGLVSLLCRHKRKQLPEEKQPLLMEKEDYHSLYQSHL
modifications: E. coli expressed
notes: Commercially sourced E. coli (bacteria) expressed recombinant human tyrosinase
Scale ratio di/dmax (Extent of DOPA oxidation) (human tyrosinase [3]): 0.04
